# Article PMC3392113 (Human Molecular Genetics, 2012)
# B1: MBP-ΔN597 (human DISC1 amino acids 326-597 fused to maltose-binding protein) (domain or fragment, UniProt Q9NRI5 326-597, looked up)
# chain: WDTLLRKWEPVLRDCLLRNRRQMEVISLRLKLQKLQEDAVENDDYDKAETLQQRLEDLEQEKISLHFQLPSRQPALSSFLGHLAAQVQAALRRGATQQASGDDTHTPLRMEPRLLEPTAQDSLHVSITRRDWLLQEKQQLQKEIEALQARMFVLEAKDQQLRREIEEQEQQLQWQGCDLTPLVGQLSLGQLQEVSKALQDTLASAGQIPFHAEPPETIRSLQERIKSLNLSLKEITTKVCMSEKFCSTLRKKVNDIETQLPALLEAKMHAIS
# Molecular target: the molecule itself
# Test: SDS-PAGE
protein,measurement,value
B1,stoichiometry N,2
